Patent US20240166733A1 (VERSITECH, published 2024)

Columns and labels:
Test in all cases: ELISA, FABP coated on plate, HRP anti-mouse IgG detection, OD450
[1] = target: T1, human E-FABP recombinant protein (human, UniProt Q01469 1-135, limits assumed)
T1 construct: also called human epidermal-FABP
Description: (§1) The mouse or human A-FABP, E-FABP, and H-FABP recombinant proteins ([…]) were coated on 96-well plates overnight for ELISA binding assay to evaluate the reactivity and specificity of monoclonal antibodies with various FABPs. [0155] 100 μL of 6H2 (1 μg/mL) was added to the wells and incubated for 1 h at room temperature. The plates were then washed three times with phosphate-buffered saline (PBS), followed by incubation with 0.2 μg/mL HRP-conjugated-[…] H+L (Proteintech, SA00001-1, Japan) as the detection antibody at room temperature for 1 hour. After washing with PBS, TMB chromogen solution (Beyotime, P0209, China) was added for color development; 2M H₂SO₄ was added to the wells to stop the enzyme-induced color reactions; and the absorbance at 450 nm was measured with a microtiter plate reader.

[2] = target: T2, mouse E-FABP recombinant protein (mouse, UniProt Q05816 1-135, limits assumed)
T2 construct: also called mouse epidermal-FABP
T2 sequence (looked up): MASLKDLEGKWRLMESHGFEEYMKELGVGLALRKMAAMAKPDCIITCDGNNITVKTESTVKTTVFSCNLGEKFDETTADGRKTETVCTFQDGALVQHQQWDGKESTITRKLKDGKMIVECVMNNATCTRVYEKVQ
Description: as §1

[3] = target: T3, human H-FABP recombinant protein (human, UniProt P05413 1-133, limits assumed)
T3 construct: also called human heart-FABP
T3 sequence (P05413 whole entry): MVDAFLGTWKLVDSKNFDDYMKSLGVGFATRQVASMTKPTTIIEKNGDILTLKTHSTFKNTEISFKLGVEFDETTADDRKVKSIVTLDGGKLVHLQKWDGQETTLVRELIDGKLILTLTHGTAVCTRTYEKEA
Description: as §1

[4] = target: T4, mouse H-FABP recombinant protein (mouse, UniProt P11404 1-133, limits assumed)
T4 construct: also called mouse heart-FABP
T4 sequence (P11404 whole entry): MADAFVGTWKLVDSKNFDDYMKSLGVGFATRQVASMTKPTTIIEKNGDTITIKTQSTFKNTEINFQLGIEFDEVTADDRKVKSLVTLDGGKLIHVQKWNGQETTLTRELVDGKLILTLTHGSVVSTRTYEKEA
Description: as §1

Measured: binding result

T1 sequence (Q01469 whole entry): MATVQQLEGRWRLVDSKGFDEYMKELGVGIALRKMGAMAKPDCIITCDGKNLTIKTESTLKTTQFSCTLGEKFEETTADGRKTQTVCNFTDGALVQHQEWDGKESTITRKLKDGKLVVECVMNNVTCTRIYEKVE

B1: A-FABP neutralizing monoclonal antibody 6H2 (antibody, V domains shown)
VH: VKLQESGPELVKPGASVKIPCKASGYTFTDYNMDWVRQSRGKSLEWIGDINPYNGDTIYNQNFKGKATLTVDKSSTTAYLELRSLTSEDTAVYYCASGYGFWGQGTTVTVSS
VL: DIVMTQAPLSLPVSLGAQASISCRSSQSLVYINGNTYLHWYLQKPGQSPKLLIYKVSNRFSGVPDRFSGSGSGTDFTLKISRVEAEDLGVYFCSQSTHVPYTFGGGTKLEIK
notes: also called 6H2 mAb
no binding (tested: 6H2 at 1 µg/mL): [1] | [2] | [3] | [4]
